T1: Spt7 with a C-terminal TAP tag (S. cerevisiae, UniProt P35177 1-1332)
T1 construct: Spt7, SAGA core subunit, S. cerevisiae; expressed at endogenous level; SAGA was captured on IgG Sepharose by the TAP tag and released from the beads by TEV cleavage of the tag; also called Spt7-TAP; not shown: TAP, C-terminal, kept
T1 sequence (looked up): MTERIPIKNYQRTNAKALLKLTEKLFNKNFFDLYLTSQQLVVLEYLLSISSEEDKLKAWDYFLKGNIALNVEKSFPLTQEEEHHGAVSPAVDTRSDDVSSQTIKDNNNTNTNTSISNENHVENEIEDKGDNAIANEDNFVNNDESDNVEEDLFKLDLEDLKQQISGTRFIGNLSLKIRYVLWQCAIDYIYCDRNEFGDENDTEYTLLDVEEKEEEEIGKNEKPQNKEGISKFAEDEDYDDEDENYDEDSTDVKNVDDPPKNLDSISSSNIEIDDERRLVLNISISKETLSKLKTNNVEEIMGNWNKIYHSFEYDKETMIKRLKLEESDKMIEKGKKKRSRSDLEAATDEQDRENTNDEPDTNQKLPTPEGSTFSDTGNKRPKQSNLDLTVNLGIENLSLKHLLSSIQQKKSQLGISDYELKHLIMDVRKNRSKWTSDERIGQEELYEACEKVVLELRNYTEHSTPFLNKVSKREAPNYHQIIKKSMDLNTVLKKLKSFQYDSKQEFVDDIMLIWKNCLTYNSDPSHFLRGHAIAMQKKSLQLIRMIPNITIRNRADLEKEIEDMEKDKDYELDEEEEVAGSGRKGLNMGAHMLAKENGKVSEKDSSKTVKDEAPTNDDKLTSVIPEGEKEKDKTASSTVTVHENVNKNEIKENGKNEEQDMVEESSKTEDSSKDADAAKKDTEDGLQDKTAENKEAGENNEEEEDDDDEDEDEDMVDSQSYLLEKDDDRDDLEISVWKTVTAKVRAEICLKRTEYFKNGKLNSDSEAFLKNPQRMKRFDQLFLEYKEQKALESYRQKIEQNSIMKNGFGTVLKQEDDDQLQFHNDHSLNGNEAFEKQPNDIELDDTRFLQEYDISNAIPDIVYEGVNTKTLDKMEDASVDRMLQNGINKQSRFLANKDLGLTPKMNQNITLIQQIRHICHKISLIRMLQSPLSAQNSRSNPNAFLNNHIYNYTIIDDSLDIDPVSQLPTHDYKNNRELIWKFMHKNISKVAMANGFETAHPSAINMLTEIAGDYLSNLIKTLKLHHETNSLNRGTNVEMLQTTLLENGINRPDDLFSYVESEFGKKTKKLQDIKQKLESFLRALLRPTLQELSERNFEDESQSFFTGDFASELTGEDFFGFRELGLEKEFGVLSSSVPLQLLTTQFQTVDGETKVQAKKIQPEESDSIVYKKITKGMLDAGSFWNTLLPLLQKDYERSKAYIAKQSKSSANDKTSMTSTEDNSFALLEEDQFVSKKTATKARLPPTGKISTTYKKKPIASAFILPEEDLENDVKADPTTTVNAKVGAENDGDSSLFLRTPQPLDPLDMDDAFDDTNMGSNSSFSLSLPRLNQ

B1: Gcn5 (endogenous) (enzyme, S. cerevisiae (endogenous in yeast), UniProt Q03330 1-439, looked up)
chain: MVTKHQIEEDHLDGATTDPEVKRVKLENNVEEIQPEQAETNKQEGTDKENKGKFEKETERIGGSEVVTDVEKGIVKFEFDGVEYTFKERPSVVEENEGKIEFRVVNNDNTKENMMVLTGLKNIFQKQLPKMPKEYIARLVYDRSHLSMAVIRKPLTVVGGITYRPFDKREFAEIVFCAISSTEQVRGYGAHLMNHLKDYVRNTSNIKYFLTYADNYAIGYFKKQGFTKEITLDKSIWMGYIKDYEGGTLMQCSMLPRIRYLDAGKILLLQEAALRRKIRTISKSHIVRPGLEQFKDLNNIKPIDPMTIPGLKEAGWTPEMDALAQRPKRGPHDAAIQNILTELQNHAAAWPFLQPVNKEEVPDYYDFIKEPMDLSTMEIKLESNKYQKMEDFIYDARLVFNNCRMYNGENTSYYKYANRLEKFFNNKVKEIPEYSHLID
notes: Gcn5, histone acetyltransferase subunit of the SAGA HAT module, S. cerevisiae; source: endogenous, S. cerevisiae lysate / whole cell extract
B2: Ada3 (endogenous) (natural protein, S. cerevisiae (endogenous in yeast), UniProt P32494 1-702, looked up)
chain: MPRHGRRGKLPKGEKLPKKEGGDNTPSKLLSSMLKTLDLTFERDIGMLNGKSVRSIPNKKTLLELQSQLDSLNEILGTIARGDQETIEALRKIRDSKNEKQANDEKQETSNADGQHESSTATEETNIIDKGVQSPPKPPPSNEISGTIENDVESIKQAADNMAKEEINEDKDLQVHRDQPREKRPFDSETENRATENENTQRPDNKKQKIDVDKMENDPTVKNPKSEFVVSQTLPRAAAALGLFNEEGLESTGEDFLKKKYNVASYPTNDLKDLLPGELPDMDFSHPKPTNQIQFNTFLAFVENFFKDLSDDNLKFLKMKYIIPDSLQFDKTYDPEVNPFIIPKLGPLYTDVWFKDENDKNSAYKKPSPYSNDASTILPKKSANELDDNALESGSISCGPLLSRLLSAVLKDDNDKSELQSSKIIRDGGLPRTGGEDDIQSFRNNNNDTVDMTLSQENGPSVQTPDNDIDEEASFQAKLAENKGSNGGTTSTLPQQIGWITNGINLDYPTFEERLKRELKYVGIYMNLPKDENNPNSDDPDWVTGREDDEISAELRELQGTLKQVTKKNQKRKAQLIPLVERQLAWQEYSSILEDLDKQIDQAYVKRIRVPKKRKKHHTAASNNVNTGTTSQIAQQKAANSSLKSLLDKRQRWINKIGPLFDKPEIMKRIPNESVFKDMDQEEDEDEADVFAQNTNKDVELN
notes: Ada3, SAGA HAT module subunit, S. cerevisiae; source: endogenous, S. cerevisiae lysate / whole cell extract
B3: Ada2 ΔSWIRM (Δ residues 349–434, chromosomal deletion) (natural protein, S. cerevisiae, UniProt Q02336 1-434, looked up)
chain: MSNKFHCDVCSADCTNRVRVSCAICPEYDLCVPCFSQGSYTGKHRPYHDYRIIETNSYPILCPDWGADEELQLIKGAQTLGLGNWQDIADHIGSRGKEEVKEHYLKYYLESKYYPIPDITQNIHVPQDEFLEQRRHRIESFRERPLEPPRKPMASVPSCHEVQGFMPGRLEFETEFENEAEGPVKDMVFEPDDQPLDIELKFAILDIYNSRLTTRAEKKRLLFENHLMDYRKLQAIDKKRSKEAKELYNRIKPFARVMTAQDFEEFSKDILEELHCRARIQQLQEWRSNGLTTLEAGLKYERDKQARISSFEKFGASTAASLSEGNSRYRSNSAHRSNAEYSQNYSEN
notes: Ada2, S. cerevisiae, without the SWIRM domain (residues 349–434 substituted with KanMX in the gene); source: S. cerevisiae strain YCW20, SWIRM domain deleted by homologous recombination, in lysate
B4: Sgf29 (endogenous) (natural protein, S. cerevisiae (endogenous in yeast), UniProt P25554 1-259, looked up)
chain: MDGYWDVVVSSLQDIYNANEVIPFDDELQTKKLNFLNMSKDQLQLHLNTFQEHMENVNRVHRILDNVRSNLSLMLNQSREEKSEENTEDAEEGEGTRMALSQGKKAVGKVGRSYWTSEYNPNAPILVGSEVAYKPRRGSADGEWIQCEVLKVVADGTRFEVRDPEPDELGNSGKVYKCNRKELLLIPPGFPTKNYPPGTKVLARYPETTTFYPAIVIGTKRDGTCRLRFDGEEEVDKETEVTRRLVLPSPTALANLARK
notes: Sgf29, SAGA HAT module subunit, S. cerevisiae; source: endogenous, S. cerevisiae lysate / whole cell extract

Target: T1, Spt7 with a C-terminal TAP tag
Assay: affinity purification with mass spectrometry; SAGA purified by Spt7-TAP from yeast with the Ada2 SWIRM domain deleted (YCW20): IgG Sepharose, TEV cleavage, HiTrap Q; LC-MS/MS, total spectrum counts normalized to Spt7
Conditions: partners not purified

Row | Binder | fold depletion against wild type SAGA [fold]
1 | B1 | ~7
2 | B2 | ~7
3 | B3 | ~7
4 | B4 | ~7

— article PMC10226619, “The SAGA HAT module is tethered by its SWIRM domain and modulates activity of the SAGA DUB module” (Biochimica et biophysica acta. Gene regulatory mechanisms, 2023)
